These results are taken from patent publication US20180237508A1 (INTERNATIONA DRUG DEVELOPMENT BIOTECH, published 2018).

Ends that are not written are not given here.

To fix the notation:
B1: Unconjugated peptide 1 (peptide)
peptide: AEQRGELAIKDANAKLSELEAALQRAKQDC
B2: Murine monoclonal antibody D-A10 (antibody, V domains shown)
VH: EVQLLETGGGLVQPGGSRGLSCEGSGFTFSGFWMSWVRQTPGKTLEWIGDINSDGSAIKYAPSIKDRFTIFRDNDKSTLYLQMSNVRSEDTATYFCIAHYSGGGFAYWGQGTSVTVSS
VL: NIVMTQAAPSVPVTPGESVSISCRSSKSLLYSNGNTYLYWFLQRPGQSPQRLIYYMSNLASGVPDRFSGRGSGTDFTLRISRVEAEDVGVYYCMQSLEYPFTFGGGTKLEIK
notes: Murine IgG from a hybridoma, purified from ascitic fluid on protein A; also called mD-A10 Mab; mD-A10

In experiment [1] the target is B2. Description: flow cytometry competition, free peptide against biotinylated antibody on Isreco-1 cells. Here is the method:
2.10⁵ Isreco-1 cells per 96-wells were incubated with a biotinylated antibody anti-CK8 (12.5 μg/mL) with or without peptide 1 or peptide 2 tested at different concentrations and incubated at 4° C. for 30 min. Unbound antibody was washed away with PBS (Invitrogen, Villebon sur Yvette, France) supplemented by 1% Bovine Serum Albumin (Sigma, St Quentin Fallavier, France). Subsequently, cells were centrifuged (5 min at 400 g) and bound antibody was detected with Phycoerythrin conjugated Streptavidin (Interchim, Montlucon, France) at 4° C. for 30 min. Detection reagent was washed away and cells were centrifuged (5 min at 400 g) and suspended in 300 μL PBS. Bound detection antibody was quantified on a FACS CAN (BD Biosciences, Rungis, France), (FL2 channel, 2 000 events per acquisition). During the experiment, the respective isotype controls were included to exclude any unspecific binding events. The presence of peptide 1 inhibits cell labelling with the mD-D6 or mD-A10 Mab without any significant impact on M20 Mab cellular staining.
Background: Flow cytometry measures light scatter and fluorescence of single cells or particles in a stream.

Experiment [2] deals with T1, Unconjugated peptide 21 (human).
T1 peptide: AIKDANAKLSELEAALQR
Description: ELISA, coated unconjugated peptide. As to the method:
(§1) The CK8 peptides, coupled or not with the bovine serum albumin (BSA) at the SH group of the C-terminal cysteine, were immobilized (0.5 μg/ml or 1 μg/ml respectively) at the bottom of the wells of a 96 well plate overnight at room temperature. Unbound peptides are washed away with purified water supplemented by Tween (Sigma, St Quentin Fallavier, France). The wells are then saturated with a saline phosphate buffer solution (PBS) containing 5% BSA for 2 hours at room temperature (RT). Then the plates are washed away with purified water supplemented by Tween. The Mab binding to the coated peptides is tested at different Mab concentrations following an incubation for 2 hours at RT in PBS (Invitrogen, Villebon sur Yvette, France) supplemented by 1% Bovine Serum Albumin (Sigma, St Quentin Fallavier, France). Unbound Mabs are washed away with purified water supplemented by Tween. […] The absorbance is read at 450 nm and corrected at 630 nm. The specific requirements for the different experiments are detailed below.
(§2) The unconjugated peptides 1, 5 to 28 of human CK8 were immobilized (2 μg/ml) at the bottom of a 96-wells plate. Different Mab concentrations (from 10 μg/mL then diluted at 1/10) were incubated for 2 hours at room temperature alone or with each peptide tested. The optical density values (OD) was read at 450 nm and corrected at 630 nm. The results are shown in FIG. 13A (related to mD-A10) or on FIG. 13B (related to M20).
In general terms: ELISA stands for enzyme-linked immunosorbent assay.

Experiment [3] concerns the target T2, Unconjugated peptide 22 (human).
T2 peptide: AIKDANAKLSELEAALQ
Description: ELISA, coated unconjugated peptide. Here is the method: as §1, §2

The target of experiment [4] is T3, Unconjugated peptide 26 (human).
T3 peptide: AIKDANAKLSELE
Description: ELISA, coated unconjugated peptide. As to the method: as §1, §2

Experiment [5] addresses T4, Unconjugated peptide 25 (human).
T4 peptide: AIKDANAKLSELEA
Description: ELISA, coated unconjugated peptide. As to the method: as §1, §2

In experiment [6] the target is T5, Unconjugated peptide 6 (human).
T5 peptide: AALQRAKQD
Briefly: ELISA, coated unconjugated peptide. Here is the method: as §1, §2

For experiment [7], the target named is T6, Unconjugated peptide 8 (human).
T6 peptide: LEAALQRAKQD
Description: ELISA, coated unconjugated peptide. Here is the method:
as §1, §2

The target in experiment [8] is T7, Unconjugated peptide 28 (human).
T7 peptide: AIKDANAKLSE
Description: ELISA, coated unconjugated peptide. As to the method:
as §1, §2

Experiment [9] deals with T8, Unconjugated peptide 5 (human).
T8 peptide: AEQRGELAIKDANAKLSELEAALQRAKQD
Briefly: ELISA, coated unconjugated peptide. Here is the method: as §1, §2

The target of experiment [10] is T9, Unconjugated peptide 19 (human).
T9 peptide: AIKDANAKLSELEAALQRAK
Briefly: ELISA, coated unconjugated peptide. As to the method:
as §1, §2

The target in experiment [11] is T10, Unconjugated peptide 10 (human).
T10 peptide: SELEAALQRAKQD
Briefly: ELISA, coated unconjugated peptide. As to the method:
as §1, §2

The target of experiment [12] is B1. Description: ELISA, coated unconjugated peptide. Here is the method:
as §1, §2

Experiment [13] concerns the target T11, Unconjugated peptide 9 (human).
T11 peptide: ELEAALQRAKQD
Briefly: ELISA, coated unconjugated peptide. As to the method: as §1, §2

Experiment [14] has as its target T12, Unconjugated peptide 27 (human).
T12 peptide: AIKDANAKLSEL
Briefly: ELISA, coated unconjugated peptide. Here is the method:
as §1, §2

Experiment [15] deals with T13, Unconjugated peptide 16 (human).
T13 peptide: DANAKLSELEAALQRAKQD
Description: ELISA, coated unconjugated peptide. As to the method: as §1, §2

Experiment [16] has as its target T14, Unconjugated peptide 18 (human).
T14 peptide: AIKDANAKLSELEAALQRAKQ
Description: ELISA, coated unconjugated peptide. As to the method:
as §1, §2

Experiment [17] concerns the target T15, Unconjugated peptide 20 (human).
T15 peptide: AIKDANAKLSELEAALQRA
Description: ELISA, coated unconjugated peptide. Here is the method:
as §1, §2

Experiment [18] has as its target T16, Unconjugated peptide 12 (human).
T16 peptide: KLSELEAALQRAKQD
Description: ELISA, coated unconjugated peptide. Here is the method:
as §1, §2

Experiment [19] deals with T17, Unconjugated peptide 15 (human).
T17 peptide: ANAKLSELEAALQRAKQD
Briefly: ELISA, coated unconjugated peptide. Here is the method: as §1, §2

For experiment [20], the target named is T18, Unconjugated peptide 13 (human).
T18 peptide: AKLSELEAALQRAKQD
Briefly: ELISA, coated unconjugated peptide. As to the method: as §1, §2

Experiment [21] addresses T19, Unconjugated peptide 7 (human).
T19 peptide: EAALQRAKQD
Briefly: ELISA, coated unconjugated peptide. Here is the method:
as §1, §2

Experiment [22] concerns the target T20, Unconjugated peptide 11 (human).
T20 peptide: LSELEAALQRAKQD
Briefly: ELISA, coated unconjugated peptide. Here is the method:
as §1, §2

For experiment [23], the target named is T21, Unconjugated peptide 14 (human).
T21 peptide: NAKLSELEAALQRAKQD
Description: ELISA, coated unconjugated peptide. Here is the method:
as §1, §2

Experiment [24] deals with Unconjugated peptide 23 (human). Description: ELISA, coated unconjugated peptide. Here is the method: as §1, §2
For experiment [25], the target named is T22, Unconjugated peptide 24 (human).
T22 peptide: AIKDANAKLSELEAA
Briefly: ELISA, coated unconjugated peptide. Here is the method:
as §1, §2

The target in experiment [26] is T23, Unconjugated peptide 17 (human).
T23 peptide: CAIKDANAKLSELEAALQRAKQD
Description: ELISA, coated unconjugated peptide. As to the method:
as §1, §2

For experiment [27], the target named is T24, BSA conjugated peptide 1 (human, BSA coupled at the SH group of the C-terminal cysteine).
T24 peptide: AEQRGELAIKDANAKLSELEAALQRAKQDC
Briefly: ELISA, coated BSA conjugated peptide. As to the method:
as §1
(§3) Different Mab concentrations (from 10 μg/mL then diluted at 1/10) were incubated for 2 hours at room temperature with either the peptide 1, peptide 2, peptide 3, peptide 4 or peptide 17. The optical density values (OD) was read at 450 nm and corrected at 630 nm.

Experiment [28] deals with T25, BSA conjugated peptide 2 (human, BSA coupled at the SH group of the C-terminal cysteine).
T25 peptide: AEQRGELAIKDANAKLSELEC
Description: ELISA, coated BSA conjugated peptide. As to the method:
as §1, §3

Experiment [29] addresses T26, BSA conjugated peptide 4 (human, also: conjugated to BSA via the thiol of the C-terminal Cys).
T26 peptide: SELEAALQRAKQDC(BSA)
Briefly: ELISA, coated BSA conjugated peptide. Here is the method:
as §1, §3

The target in experiment [30] is T27, BSA conjugated peptide 3 (human, also: conjugated to BSA via the thiol of the C-terminal Cys).
T27 peptide: AALQRAKQDC(BSA)
Briefly: ELISA, coated BSA conjugated peptide. As to the method:
as §1, §3

In experiment [31] the target is T28, BSA conjugated peptide 17 (human, BSA conjugated (the added cysteine is printed at the N-terminus)).
T28 peptide: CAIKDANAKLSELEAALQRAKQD
Description: ELISA, coated BSA conjugated peptide. Here is the method:
as §1, §3

B1: the binding result in experiment [1] is on record as “binds”.
In the case of B2, the binding result in experiment [2] is “binds”; in experiment [3], “binds”; in experiment [4], “no binding (tested: from 10 ug/mL then diluted at 1/10)”; in experiment [5], “no binding (tested: from 10 ug/mL then diluted at 1/10)”; in [6], “no binding (tested: from 10 ug/mL then diluted at 1/10)”; in experiment [7], “no binding (tested: from 10 ug/mL then diluted at 1/10)”. The binding result is reported as “no binding (tested: from 10 ug/mL then diluted at 1/10)” in experiment [8]; “binds” in experiment [9]; “binds” in experiment [10]; “no binding (tested: from 10 ug/mL then diluted at 1/10)” in experiment [11]; “binds” in experiment [12]; “no binding (tested: from 10 ug/mL then diluted at 1/10)” in [13]. Also, the binding result in [14] is listed as “no binding (tested: from 10 ug/mL then diluted at 1/10)”; in [15] it was “binds”; in experiment [16] it was “binds”; in [17], “binds”; in experiment [18] it was “binds”; in experiment [19] it was “binds”. For the same molecule, the binding result in experiment [20] was “binds”; in experiment [21], “no binding (tested: from 10 ug/mL then diluted at 1/10)”; in [22] it was “binds”; in [23], “binds”; in experiment [24], “binds”; in experiment [25], “no binding (tested: from 10 ug/mL then diluted at 1/10)”. For the same molecule, the binding result is given as “binds” in [26]; “binds” in [27]; “no binding (tested: from 10 ug/mL then diluted at 1/10)” in [28]; “binds” in experiment [29]; “no binding (tested: from 10 ug/mL then diluted at 1/10)” in experiment [30]; “binds” in experiment [31].
